Measurements reported in patent publication US20250043302A1, “MUTATED HYDROXYPHENYLPYRUVATE DIOXYGENASE POLYPEPTIDE, AND CODING GENE AND USE THEREOF” (BEIJING DABEINONG BIOTECHNOLOGY CO., LTD., priority 2021, published 2025).

Experiments:
Assay type in all cases: in vivo
[1] = tested on: Arabidopsis thaliana T1 plants; assay: Topramezone tolerance of transgenic Arabidopsis thaliana T1 plants (spray, bleached leaf area grade, damage score); conditions: Table 10; for Classification and statistics of the grade of pesticide damage Grade 0: number of plants at grade 0; for Classification and statistics of the grade of pesticide damage Grade 1: number of plants at grade 1; for Classification and statistics of the grade of pesticide damage Grade 2: number of plants at grade 2; for Classification and statistics of the grade of pesticide damage Grade 3: number of plants at grade 3; for Scores: pesticide damage score
Summary of the method: (§1)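 Damage was assessed by bleaching grade (0 none; 1 <50%; 2 >50%; 3 100% of leaf area) one week after spraying. Sprays on 18-day-old T1 and wild-type plants used field-rate multiples: topramezone 25–200, isoxaflutole 35–280, mesotrione 52.5–420 g ai/ha.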

[2] = tested on: Arabidopsis thaliana T1 plants; assay: Isoxaflutole tolerance of transgenic Arabidopsis thaliana T1 plants (spray, bleached leaf area grade, damage score); conditions: Table 11; for Classification and statistics of the grade of pesticide damage Grade 0: number of plants at grade 0; for Classification and statistics of the grade of pesticide damage Grade 1: number of plants at grade 1; for Classification and statistics of the grade of pesticide damage Grade 2: number of plants at grade 2; for Classification and statistics of the grade of pesticide damage Grade 3: number of plants at grade 3; for Scores: pesticide damage score;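 as to Scores: Weighted damage index from 0 to 100 where higher means more damage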
Summary of the method: as §1

[3] = tested on: Arabidopsis thaliana T1 plants; assay: Mesotrione tolerance of transgenic Arabidopsis thaliana T1 plants (spray, bleached leaf area grade, damage score); design: Scores: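 damage score 0-100 computed as Σ(N×S)/(T×M)×100 over grades 0-3 with higher meaning more damage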; conditions: Table 12; for Classification and statistics of the grade of pesticide damage Grade 0: number of plants at grade 0; for Classification and statistics of the grade of pesticide damage Grade 1: number of plants at grade 1; for Classification and statistics of the grade of pesticide damage Grade 2: number of plants at grade 2; for Classification and statistics of the grade of pesticide damage Grade 3: number of plants at grade 3; for Scores: pesticide damage score
Summary of the method: as §1

B1: HPPDm-3-02: nucleotide sequence encoding Avena sativa HPPD with A106G+F372A+F383W; vector DBN11784 (nucleic acid)
DNA: ATGCCACCTACTCCAGCTACAGCTACTGGTGCTGCTGCTGCTGCCGTTACTCCTGAGCACGCTGCCAGGTCATTCCCCAGGGTGGTTCGCGTGAACCCCAGATCTGATAGGTTCCCAGTTCTGAGCTTCCACCATGTTGAGCTGTGGTGCGCTGATGCTGCTTCTGCTGCTGGCAGGTTCTCTTTCGCTCTTGGTGCTCCACTCGCTGCTAGATCTGATCTGTCTACAGGAAATAGCGCTCATGCCTCACTCCTGCTTCGCTCAGGTGCTTTGGCCTTCCTCTTCACCGCTCCATATGCTCCCCCACCTCAGGAGGGTGCTACTGCTGCTGCTACAGCCTCCATTCCAAGCTTCTCAGCTGATGCCGCTAGAACCTTCGCTGCTGCTCATGGACTTGCCGTGAGGTCTGTTGGTGTTCGCGTGGCTGATGCTGCTGAGGCTTTCAGAGTTTCCGTTGCCGGCGGAGCTAGGCCAGCTTTCGCTCCTGCTGATTTGGGACATGGTTTCGGCCTGGCTGAGGTTGAGCTTTACGGTGACGTGGTTCTCCGCTTCGTGTCTTACCCAGATGAGACTGACCTGCCTTTCCTTCCCGGCTTCGAGAGAGTTTCCTCTCCTGGTGCCGTGGATTACGGCCTGACAAGGTTCGACCACGTGGTTGGAAACGTTCCCGAGATGGCTCCAGTGATCGATTACATGAAGGGCTTCCTTGGATTCCATGAGTTCGCCGAGTTCACTGCTGAGGACGTGGGAACCACTGAGTCCGGTTTGAACTCTGTGGTTCTCGCCAACAATTCTGAGGCTGTTTTGCTCCCTCTGAATGAGCCTGTGCATGGAACCAAGAGGAGAAGCCAGATTCAAACTTACCTGGAGTACCACGGTGGCCCTGGAGTTCAGCATATCGCCCTTGCTTCTAATGATGTGTTGCGCACACTCAGAGAGATGCGCGCCAGAACCCCCATGGGAGGTTTCGAGTTCATGGCCCCACCACAGGCTAAGTACTACGAGGGCGTTAGAAGGATTGCTGGAGACGTGTTGAGCGAGGAGCAGATCAAGGAGTGCCAAGAGCTGGGTGTTCTTGTGGATAGGGATGACCAGGGCGTTCTGCTTCAAATTGCCACTAAGCCAGTGGGCGACCGCCCTACATTCTGGCTTGAGATGATTCAAAGAATCGGCTGCATGGAGAAGGATGAGGTTGGACAGGAGTACCAAAAGGGCGGATGCGGTGGCTTCGGAAAGGGTAACTTCAGCGAGTTGTTCAAGTCAATCGAGGACTACGAGAAGAGCCTCGAGGTGAAGCAGTCAGTGGTTGCCCAAAAGTCCTGA
modifications: HPPDm-3-02 Nucleotide Sequence
notes: vector DBN11784
[1]; topramezone 100 g ai/ha (4×)
  Resistance evaluation: Highly resistant
  Classification and statistics of the grade of pesticide damage Grade 0: 16
  Classification and statistics of the grade of pesticide damage Grade 1: 0
  Classification and statistics of the grade of pesticide damage Grade 2: 0
  Classification and statistics of the grade of pesticide damage Grade 3: 0
  Scores: 0
[1]; topramezone 200 g ai/ha (8×)
  Resistance evaluation: Highly resistant
  Classification and statistics of the grade of pesticide damage Grade 0: 16
  Classification and statistics of the grade of pesticide damage Grade 1: 0
  Classification and statistics of the grade of pesticide damage Grade 2: 0
  Classification and statistics of the grade of pesticide damage Grade 3: 0
  Scores: 0
[2]; isoxaflutole 140 g ai/ha (2×)
  Resistance evaluation: Highly resistant
  Classification and statistics of the grade of pesticide damage Grade 0: 16
  Classification and statistics of the grade of pesticide damage Grade 1: 0
  Classification and statistics of the grade of pesticide damage Grade 2: 0
  Classification and statistics of the grade of pesticide damage Grade 3: 0
  Scores: 0
[2]; isoxaflutole 280 g ai/ha (4×)
  Resistance evaluation: Highly resistant
  Classification and statistics of the grade of pesticide damage Grade 0: 12
  Classification and statistics of the grade of pesticide damage Grade 1: 4
  Classification and statistics of the grade of pesticide damage Grade 2: 0
  Classification and statistics of the grade of pesticide damage Grade 3: 0
  Scores: 8
[3]; mesotrione 210 g ai/ha (2×)
  Resistance evaluation: Highly resistant
  Classification and statistics of the grade of pesticide damage Grade 0: 16
  Classification and statistics of the grade of pesticide damage Grade 1: 0
  Classification and statistics of the grade of pesticide damage Grade 2: 0
  Classification and statistics of the grade of pesticide damage Grade 3: 0
  Scores: 0
[3]; mesotrione 420 g ai/ha (4×)
  Resistance evaluation: Highly resistant
  Classification and statistics of the grade of pesticide damage Grade 0: 14
  Classification and statistics of the grade of pesticide damage Grade 1: 2
  Classification and statistics of the grade of pesticide damage Grade 2: 0
  Classification and statistics of the grade of pesticide damage Grade 3: 0
  Scores: 4

B2: HPPDm-4-02: nucleotide sequence encoding Avena sativa HPPD with A107 deletion+K351N+F372A+F383W; vector DBN11785 (nucleic acid)
DNA: ATGCCACCTACTCCAGCTACAGCTACTGGTGCTGCTGCTGCTGCCGTTACTCCTGAGCACGCTGCCAGGTCATTCCCCAGGGTGGTTCGCGTGAACCCCAGATCTGATAGGTTCCCAGTTCTGAGCTTCCACCATGTTGAGCTGTGGTGCGCTGATGCTGCTTCTGCTGCTGGCAGGTTCTCTTTCGCTCTTGGTGCTCCACTCGCTGCTAGATCTGATCTGTCTACAGGAAATAGCGCTCATGCCTCACTCCTGCTTCGCTCAGGTGCTTTGGCCTTCCTCTTCACCGCTCCATATGCTCCCCCACCTCAGGAGGCTACTGCTGCTGCTACAGCCTCCATTCCAAGCTTCTCAGCTGATGCCGCTAGAACCTTCGCTGCTGCTCATGGACTTGCCGTGAGGTCTGTTGGTGTTCGCGTGGCTGATGCTGCTGAGGCTTTCAGAGTTTCCGTTGCCGGCGGAGCTAGGCCAGCTTTCGCTCCTGCTGATTTGGGACATGGTTTCGGCCTGGCTGAGGTTGAGCTTTACGGTGACGTGGTTCTCCGCTTCGTGTCTTACCCAGATGAGACTGACCTGCCTTTCCTTCCCGGCTTCGAGAGAGTTTCCTCTCCTGGTGCCGTGGATTACGGCCTGACAAGGTTCGACCACGTGGTTGGAAACGTTCCCGAGATGGCTCCAGTGATCGATTACATGAAGGGCTTCCTTGGATTCCATGAGTTCGCCGAGTTCACTGCTGAGGACGTGGGAACCACTGAGTCCGGTTTGAACTCTGTGGTTCTCGCCAACAATTCTGAGGCTGTTTTGCTCCCTCTGAATGAGCCTGTGCATGGAACCAAGAGGAGAAGCCAGATTCAAACTTACCTGGAGTACCACGGTGGCCCTGGAGTTCAGCATATCGCCCTTGCTTCTAATGATGTGTTGCGCACACTCAGAGAGATGCGCGCCAGAACCCCCATGGGAGGTTTCGAGTTCATGGCCCCACCACAGGCTAAGTACTACGAGGGCGTTAGAAGGATTGCTGGAGACGTGTTGAGCGAGGAGCAGATCAATGAGTGCCAAGAGCTGGGTGTTCTTGTGGATAGGGATGACCAGGGCGTTCTGCTTCAAATTGCCACTAAGCCAGTGGGCGACCGCCCTACATTCTGGCTTGAGATGATTCAAAGAATCGGCTGCATGGAGAAGGATGAGGTTGGACAGGAGTACCAAAAGGGCGGATGCGGTGGCTTCGGAAAGGGTAACTTCAGCGAGTTGTTCAAGTCAATCGAGGACTACGAGAAGAGCCTCGAGGTGAAGCAGTCAGTGGTTGCCCAAAAGTCCTGA
modifications: HPPDm-4-02 Nucleotide Sequence
notes: vector DBN11785
[1]; topramezone 100 g ai/ha (4×)
  Resistance evaluation: Highly resistant
  Classification and statistics of the grade of pesticide damage Grade 0: 16
  Classification and statistics of the grade of pesticide damage Grade 1: 0
  Classification and statistics of the grade of pesticide damage Grade 2: 0
  Classification and statistics of the grade of pesticide damage Grade 3: 0
  Scores: 0
[1]; topramezone 200 g ai/ha (8×)
  Resistance evaluation: Highly resistant
  Classification and statistics of the grade of pesticide damage Grade 0: 16
  Classification and statistics of the grade of pesticide damage Grade 1: 0
  Classification and statistics of the grade of pesticide damage Grade 2: 0
  Classification and statistics of the grade of pesticide damage Grade 3: 0
  Scores: 0
[2]; isoxaflutole 140 g ai/ha (2×)
  Resistance evaluation: Highly resistant
  Classification and statistics of the grade of pesticide damage Grade 0: 16
  Classification and statistics of the grade of pesticide damage Grade 1: 0
  Classification and statistics of the grade of pesticide damage Grade 2: 0
  Classification and statistics of the grade of pesticide damage Grade 3: 0
  Scores: 0
[2]; isoxaflutole 280 g ai/ha (4×)
  Resistance evaluation: Highly resistant
  Classification and statistics of the grade of pesticide damage Grade 0: 13
  Classification and statistics of the grade of pesticide damage Grade 1: 3
  Classification and statistics of the grade of pesticide damage Grade 2: 0
  Classification and statistics of the grade of pesticide damage Grade 3: 0
  Scores: 6
[3]; mesotrione 210 g ai/ha (2×)
  Resistance evaluation: Highly resistant
  Classification and statistics of the grade of pesticide damage Grade 0: 16
  Classification and statistics of the grade of pesticide damage Grade 1: 0
  Classification and statistics of the grade of pesticide damage Grade 2: 0
  Classification and statistics of the grade of pesticide damage Grade 3: 0
  Scores: 0
[3]; mesotrione 420 g ai/ha (4×)
  Resistance evaluation: Highly resistant
  Classification and statistics of the grade of pesticide damage Grade 0: 15
  Classification and statistics of the grade of pesticide damage Grade 1: 1
  Classification and statistics of the grade of pesticide damage Grade 2: 0
  Classification and statistics of the grade of pesticide damage Grade 3: 0
  Scores: 2
